In the supplement of paper PMC9112550, “Optimization of the antimicrobial peptide Bac7 by deep mutational scanning” (BMC Biology, 2022):

System: Escherichia coli TOP10
Assay: shrunken log2 fold change of peptide-encoding DNA abundance (4.5 h post-induction vs induction); higher = less antimicrobial activity (less host growth inhibition)
Conditions: time post-induction: 4.5 h; library: site-saturation at positions 5, 18, 19, 20
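Note: peptides expressed intracellularly from a pBAD plasmid library in pooled LB shake-flask culture, induced with 0.3% L-arabinose, DNA abundance read by NGS, three biological replicates, DESeq2 with apeglm shrinkage.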

Sequence	shrunken log2 fold change
RRIRQRPPRLPRPRPRPYRMPRP	3.17
RRIRGRPPRLPRPRPRPDENPRP	0.987
RRIRNRPPRLPRPRPRPQTFPRP	-0.0594
RRIRHRPPRLPRPRPRPYINPRP	-0.862
RRIRHRPPRLPRPRPRPRGKPRP	-0.241
RRIRCRPPRLPRPRPRPAYTPRP	-0.305
RRIRDRPPRLPRPRPRPDGVPRP	-0.0199
RRIRGRPPRLPRPRPRPQYRPRP	0.0878
RRIRIRPPRLPRPRPRPVWPPRP	0.0939
RRIRSRPPRLPRPRPRPADLPRP	0.274
RRIRRRPPRLPRPRPRPDPNPRP	0.0237
RRIRWRPPRLPRPRPRPYYVPRP	-0.213
RRIRWRPPRLPRPRPRPLFCPRP	0.22
RRIRRRPPRLPRPRPRPLHDPRP	0.359
RRIRNRPPRLPRPRPRPVLGPRP	0.00359
RRIRTRPPRLPRPRPRPDWQPRP	-0.0206
RRIRARPPRLPRPRPRPHRSPRP	-0.0655
RRIRHRPPRLPRPRPRPFTHPRP	-0.0608
RRIRKRPPRLPRPRPRPWFVPRP	-0.036
RRIRDRPPRLPRPRPRPSFGPRP	-0.0644
RRIRERPPRLPRPRPRPNIQPRP	-0.357
RRIRPRPPRLPRPRPRPNQWPRP	0.139

Sequence	shrunken log2 fold change
RRIRIRPPRLPRPRPRPQKCPRP	-0.506
RRIRGRPPRLPRPRPRPSIVPRP	0.124
RRIRGRPPRLPRPRPRPESEPRP	2
RRIRDRPPRLPRPRPRPPTHPRP	0.21
RRIRYRPPRLPRPRPRPRVTPRP	-0.286
RRIRKRPPRLPRPRPRPLSMPRP	0.0129
RRIRIRPPRLPRPRPRPGNCPRP	-0.549
RRIRERPPRLPRPRPRPRNMPRP	-0.228
RRIRGRPPRLPRPRPRPQLWPRP	0.928
RRIRCRPPRLPRPRPRPFMFPRP	-0.421
RRIRQRPPRLPRPRPRPKDTPRP	-0.0272
RRIRKRPPRLPRPRPRPTGPPRP	0.588
RRIRWRPPRLPRPRPRPSGIPRP	0.146
RRIRRRPPRLPRPRPRPVCKPRP	-0.012
RRIRRRPPRLPRPRPRPMFKPRP	0.168
RRIRRRPPRLPRPRPRPEKDPRP	0.0399
RRIRQRPPRLPRPRPRPQRQPRP	0.0235
RRIRIRPPRLPRPRPRPQQFPRP	-0.709
RRIRARPPRLPRPRPRPHILPRP	-0.207
RRIRVRPPRLPRPRPRPIFEPRP	0.149
RRIRFRPPRLPRPRPRPMKCPRP	-0.695
RRIRARPPRLPRPRPRPKPCPRP	0.162

Sequence	shrunken log2 fold change
RRIRLRPPRLPRPRPRPCMDPRP	-0.351
RRIRQRPPRLPRPRPRPMMTPRP	0.0172
RRIRNRPPRLPRPRPRPEGSPRP	-0.0385
RRIRMRPPRLPRPRPRPAVCPRP	0.103
RRIRCRPPRLPRPRPRPDEWPRP	-0.0372
RRIRYRPPRLPRPRPRPVFWPRP	0.11
RRIRKRPPRLPRPRPRPHKPPRP	-0.0045
RRIRGRPPRLPRPRPRPQFEPRP	0.156
RRIRNRPPRLPRPRPRPVWVPRP	0.0909
RRIRIRPPRLPRPRPRPLDLPRP	-0.415
RRIRPRPPRLPRPRPRPKHDPRP	-0.0113
RRIRVRPPRLPRPRPRPREIPRP	0.087
RRIRGRPPRLPRPRPRPNLDPRP	0.265
RRIRVRPPRLPRPRPRPVMNPRP	-0.19
RRIRVRPPRLPRPRPRPVNPPRP	-0.464
RRIRRRPPRLPRPRPRPGDGPRP	0.467
RRIRNRPPRLPRPRPRPAENPRP	-0.0634
RRIRARPPRLPRPRPRPKGEPRP	0.556
RRIRFRPPRLPRPRPRPTIDPRP	0.103
RRIRDRPPRLPRPRPRPKHYPRP	-0.491
RRIRWRPPRLPRPRPRPIGPPRP	-0.0272
RRIRDRPPRLPRPRPRPEPNPRP	0.746

Sequence	shrunken log2 fold change
RRIRQRPPRLPRPRPRPFDVPRP	0.028
RRIRCRPPRLPRPRPRPWSQPRP	-0.0595
RRIRDRPPRLPRPRPRPHASPRP	0.178
RRIRVRPPRLPRPRPRPIYRPRP	-0.491
RRIRVRPPRLPRPRPRPEFRPRP	0.463
RRIRHRPPRLPRPRPRPCKIPRP	-0.036
RRIRIRPPRLPRPRPRPKSKPRP	-0.298
RRIRLRPPRLPRPRPRPVGNPRP	0.0885
RRIRLRPPRLPRPRPRPDQMPRP	-0.0132
RRIRYRPPRLPRPRPRPNGDPRP	-0.112
RRIRCRPPRLPRPRPRPDEHPRP	-0.417
RRIRKRPPRLPRPRPRPAKNPRP	0.487
RRIRCRPPRLPRPRPRPMCEPRP	-0.0476
RRIRMRPPRLPRPRPRPVAEPRP	2.88
RRIRNRPPRLPRPRPRPSVEPRP	-0.254
RRIRARPPRLPRPRPRPDIEPRP	-0.0212
RRIRTRPPRLPRPRPRPLKHPRP	-0.315
RRIRQRPPRLPRPRPRPKLRPRP	-0.0665
RRIRNRPPRLPRPRPRPSLSPRP	-0.205
RRIRDRPPRLPRPRPRPHLVPRP	-0.0562
RRIRYRPPRLPRPRPRPINDPRP	-0.0981
RRIRKRPPRLPRPRPRPPDSPRP	0.189

Sequence	shrunken log2 fold change
RRIRPRPPRLPRPRPRPRIHPRP	-0.00548
RRIRLRPPRLPRPRPRPTWHPRP	0.174
RRIRDRPPRLPRPRPRPFIKPRP	-0.206
RRIRDRPPRLPRPRPRPRGYPRP	0.03
RRIRNRPPRLPRPRPRPSNIPRP	-0.28
RRIRDRPPRLPRPRPRPHKCPRP	-0.372
RRIRFRPPRLPRPRPRPKAFPRP	0.133
RRIRCRPPRLPRPRPRPEVYPRP	-0.0302
RRIRNRPPRLPRPRPRPHYQPRP	-0.568
RRIRLRPPRLPRPRPRPEDWPRP	0.544
RRIRWRPPRLPRPRPRPHIFPRP	-0.494
RRIRTRPPRLPRPRPRPVNFPRP	-0.484
RRIRRRPPRLPRPRPRPYANPRP	-0.0552
RRIRQRPPRLPRPRPRPRFEPRP	0.0165
RRIRLRPPRLPRPRPRPWPAPRP	0.0194
RRIRYRPPRLPRPRPRPCWCPRP	-0.0193
RRIRYRPPRLPRPRPRPLSKPRP	-1.03
RRIRERPPRLPRPRPRPTFDPRP	-0.066
RRIRTRPPRLPRPRPRPKRPPRP	-0.165
RRIRARPPRLPRPRPRPMSEPRP	0.337
RRIRERPPRLPRPRPRPMYKPRP	-0.0299
